# Experimental data from the supplement of paper PMC10899765.
# What was measured:
# Settings in all cases: 20 nM; 72 h
# MCF10A [1] = assay: 5+ nucleoli phenotype percent effect (relative to siNT 0% and siKIF11 100%); higher = more cells with five or more nucleoli
# Experimental: (§1)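 After 72 h, cells were fixed and stained with Hoechst and anti-fibrillarin, and nucleoli per nucleus were counted with CellProfiler. Values are plate-adjusted percent effect for the one-nucleolus and 5+ nucleoli phenotypes, normalised to siNT (0%) and to the positive controls siNOL11 or siKIF11 (100%), as the mean of biological triplicates. Percent viability is the nuclei count relative to siNT.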
# MCF10A [2] = assay: one-nucleolus phenotype percent effect (relative to siNT 0% and siNOL11 100%); higher = more cells with one nucleolus (ribosome biogenesis inhibition)
# Experimental: as §1
# MCF10A [3] = assay: percent viability (nuclei count relative to siNT); higher = more viable cells
# Experimental: as §1
Sequence,5+ nucleoli phenotype percent effect (MCF10A [1]) [%],one-nucleolus phenotype percent effect (MCF10A [2]) [%],percent viability (MCF10A [3]) [%]
GUGUCUUUUGCUCUGCAGUCA [hsa-miR-511],-3.71,-6.61,55.3
UCCGUCUCAGUUACUUUAUAGC [hsa-miR-340-3p],26.3,1.48,74
GUAAGGGACCGGAGAGUAGGA [hsa-miR-6892-5p],-29,20.5,22.3
UAACACUGUCUGGUAACGAUGU [hsa-miR-200a-3p],36.9,-6.99,75.6
UGGCCCAAGACCUCAGACC [hsa-miR-7155-3p],18.5,11.3,35.1
AUCACAUUGCCAGUGAUUACCC [hsa-miR-23c],-6.12,2.08,93.5
CCUUCACUGUGACUCUGCUGCAG [hsa-miR-6837-3p],50.7,-30.8,180
UCUCCCAACCCUUGUACCAGUG [hsa-miR-150-5p],26.7,-2.57,224
AACCCGUAGAUCCGAUCUUGUG [hsa-miR-99a-5p],1.63,7.7,48.2
AUGGCCAAAACUGCAGUUAUUUU [hsa-miR-548s],14.5,8.89,37.4
CAGAGGGAAUACAGAGGGCAAU [hsa-miR-6873-5p],7.98,20,36.7
CUGGCCUCUUCUUUCUCCUAG [hsa-miR-6878-3p],96,-7.63,45.7
CGUCAACACUUGCUGGUUUCCU [hsa-miR-505-3p],-7.84,22.4,33.8
CGCGCGGCCGUGCUCGGAGCAG [hsa-miR-4479],-37.9,54.5,34.8
AGACACAUUUGGAGAGGGAACC [hsa-miR-642a-3p],16,-16.3,90.2
AUCAUAUGAACCAAACUCUAAU [hsa-miR-5007-3p],45.1,-22.4,107
GAGCUUGGAUGAGCUGGGCUGA [hsa-miR-4538],-29.6,14.4,25.3
CAAGAACCUCAGUUGCUUUUGU [hsa-miR-548b-3p],39,-16.6,83.5
GCUGGGAUUACAGGCAUGAGCC [hsa-miR-619-5p],19,-9.05,50
UUCUCCAAAAGAAAGCACUUUCUG [hsa-miR-515-5p],3.02,-9.79,91.4

Sequence,5+ nucleoli phenotype percent effect (MCF10A [1]) [%],one-nucleolus phenotype percent effect (MCF10A [2]) [%],percent viability (MCF10A [3]) [%]
CUUUCAGUCGGAUGUUUGCAGC [hsa-miR-30a-3p],-31,1.29,86.1
AGUAUUCUGUACCAGGGAAGGU [hsa-miR-630],49.7,-15.1,68.7
AUAGCAGCAUAAGCCUGUCUC [hsa-miR-4524b-5p],-6.19,-0.0215,21
AAUCGUACAGGGUCAUCCACUU [hsa-miR-487b],24.3,-10.7,59.9
GUUGUGUCAGUUUAUCAAAC [hsa-miR-599],29.3,-13.5,84.3
UACUCAGGAGAGUGGCAAUCAC [hsa-miR-510],-26.8,41.9,20.5
CAAAACCGCAGUAACUUUUGU [hsa-miR-548at-3p],-23.4,37.5,33
ACACACUUACCCGUAGAGAUUCUA [hsa-miR-216b-3p],35.7,-17.3,59
ACUGGACUUGGAGGCAGAA [hsa-miR-378b],-14.2,9.39,36.5
UAUGGAGGUUCUAGACCAUGUU [hsa-miR-4802-5p],7.79,26.9,22.7
UCCGAACUCUCCAUUCCUCUGC [hsa-miR-6716-3p],35.3,-19.3,166
CCGCCUGAGCUAGCUGUGG [hsa-miR-6078],38.1,-22.1,89.3
UCGGAUCCGUCUGAGCUUGGCU [hsa-miR-127-3p],-26.8,14.4,41.5
UGGGCGAGGGGUGGGCUCUCAGAG [hsa-miR-4649-5p],19.2,1.85,45.5
CAAGGCCAAAGGAAGAGAACAG [hsa-miR-4753-5p],-19.1,2.71,31.8
AAUCAGUGAAUGCCUUGAACCU [hsa-miR-5094],-13.9,-15,63.5
GCCCAGGACUUUGUGCGGGGUG [hsa-miR-6840-3p],16.2,-16.9,117
UGGGCCAGGGAGCAGCUGGUGGG [hsa-miR-4640-5p],7.66,15.3,54.9
ACCCUUGAGCCUGAUCCCUAGC [hsa-miR-4780],4,-13.2,99.8
UGUAGGAACAGUUGAAUUUUGGCU [hsa-miR-8065],19.8,-24.6,58.9

Sequence,5+ nucleoli phenotype percent effect (MCF10A [1]) [%],one-nucleolus phenotype percent effect (MCF10A [2]) [%],percent viability (MCF10A [3]) [%]
GAUAUCAGCUCAGUAGGCACCG [hsa-miR-3074-3p],2.53,-9.52,25.1
UUUGGGAUUGACGCCACAUGUCU [hsa-miR-6513-5p],91.1,-20.1,72.6
GCGAGGACCCCUCGGGGUCUGAC [hsa-miR-611],45.7,-31.1,121
CUCGGGGCAGGCGGCUGGGAGCG [hsa-miR-6727-5p],19.5,-15.9,74.2
UGCAGGACCAAGAUGAGCCCU [hsa-miR-1286],1.93,5.46,35.9
CUUCCCCCCAGUAAUCUUCAUC [hsa-miR-3679-3p],-16.6,4.01,88.6
CAUGCUGACCUCCCUCCUGCCCCAG [hsa-miR-4728-3p],20.8,-12.7,69.7
UAAUUGCUUCCAUGUUU [hsa-miR-302f],-31.2,22.1,65.5
CUCGGGAGGGCAUGGGCCAGGC [hsa-miR-6771-5p],-1.93,-0.506,50.5
UGAGAUGACACUGUAGCU [hsa-miR-4770],-3.17,11.7,33.4
UGUUGUACUUUUUUUUUUGUUC [hsa-miR-3613-5p],4.98,-10.4,114
UGUCUUUCUUCUCUCCCUUGCAG [hsa-miR-6830-3p],-30.3,58,19.9
UGGGUGGUCUGGAGAUUUGUGC [hsa-miR-1293],-9.27,-46.3,7.23
UGCGACAUUGGAAGUAGUAUCA [hsa-miR-3683],-3.56,-0.47,61.1
AGAGCUGAGACUAGAAAGCCCA [hsa-miR-3160-3p],-5.31,23.1,19.1
CUCCUCCCCUGCCUGGCCCAG [hsa-miR-6749-3p],0.0227,-2.87,48.8
AACCUUGGCCCCUCUCCCCAG [hsa-miR-6813-3p],67.7,-35.3,75.9
UGAGGGAGUAGGAUGUAUGGUU [hsa-miR-4510],-17.6,13.3,16.6
CAGCCGCCGCCUGUCUCCACAG [hsa-miR-6746-3p],7.39,-1.13,36.2
